Key:
[1] = target: purified recombinant BAG-2 (SEQ ID NO:4) (human); experiment: surface plasmon resonance (BIAcore), KD=Kd/Ka
[2] = target: purified recombinant BAG-1 (beginning at residue 116 of SEQ ID NO:2) (human); experiment: surface plasmon resonance (BIAcore), KD=Kd/Ka
[3] = target: purified recombinant BAG-3 (SEQ ID NO:6) (human); experiment: surface plasmon resonance (BIAcore), KD=Kd/Ka
[4] = target: purified recombinant BAG-2 (SEQ ID NO:4) (human); experiment: surface plasmon resonance (BIAcore), BAG protein immobilized
[5] = target: purified recombinant BAG-1 (beginning at residue 116 of SEQ ID NO:2) (human); experiment: as above
[6] = target: purified recombinant BAG-3 (SEQ ID NO:6) (human); experiment: as above

Kd [1]: 2.4 nM
Kd [2]: 1.4 nM
Kd [3]: 7.4 nM
koff [4]: 0.0005 s⁻¹
kon [4]: 210000 M⁻¹ s⁻¹
koff [5]: 0.0003 s⁻¹
kon [5]: 210000 M⁻¹ s⁻¹
koff [6]: 0.0017 s⁻¹
kon [6]: 240000 M⁻¹ s⁻¹
Substance: Hsc70 in the soluble phase of the BIAcore assay

— US20030191054A1
